Reference: article PMC9616737 (2022)

Target: human plasma fibronectin (human)
Sequence (P02751 other isoform, or with tags, fused parts or gaps): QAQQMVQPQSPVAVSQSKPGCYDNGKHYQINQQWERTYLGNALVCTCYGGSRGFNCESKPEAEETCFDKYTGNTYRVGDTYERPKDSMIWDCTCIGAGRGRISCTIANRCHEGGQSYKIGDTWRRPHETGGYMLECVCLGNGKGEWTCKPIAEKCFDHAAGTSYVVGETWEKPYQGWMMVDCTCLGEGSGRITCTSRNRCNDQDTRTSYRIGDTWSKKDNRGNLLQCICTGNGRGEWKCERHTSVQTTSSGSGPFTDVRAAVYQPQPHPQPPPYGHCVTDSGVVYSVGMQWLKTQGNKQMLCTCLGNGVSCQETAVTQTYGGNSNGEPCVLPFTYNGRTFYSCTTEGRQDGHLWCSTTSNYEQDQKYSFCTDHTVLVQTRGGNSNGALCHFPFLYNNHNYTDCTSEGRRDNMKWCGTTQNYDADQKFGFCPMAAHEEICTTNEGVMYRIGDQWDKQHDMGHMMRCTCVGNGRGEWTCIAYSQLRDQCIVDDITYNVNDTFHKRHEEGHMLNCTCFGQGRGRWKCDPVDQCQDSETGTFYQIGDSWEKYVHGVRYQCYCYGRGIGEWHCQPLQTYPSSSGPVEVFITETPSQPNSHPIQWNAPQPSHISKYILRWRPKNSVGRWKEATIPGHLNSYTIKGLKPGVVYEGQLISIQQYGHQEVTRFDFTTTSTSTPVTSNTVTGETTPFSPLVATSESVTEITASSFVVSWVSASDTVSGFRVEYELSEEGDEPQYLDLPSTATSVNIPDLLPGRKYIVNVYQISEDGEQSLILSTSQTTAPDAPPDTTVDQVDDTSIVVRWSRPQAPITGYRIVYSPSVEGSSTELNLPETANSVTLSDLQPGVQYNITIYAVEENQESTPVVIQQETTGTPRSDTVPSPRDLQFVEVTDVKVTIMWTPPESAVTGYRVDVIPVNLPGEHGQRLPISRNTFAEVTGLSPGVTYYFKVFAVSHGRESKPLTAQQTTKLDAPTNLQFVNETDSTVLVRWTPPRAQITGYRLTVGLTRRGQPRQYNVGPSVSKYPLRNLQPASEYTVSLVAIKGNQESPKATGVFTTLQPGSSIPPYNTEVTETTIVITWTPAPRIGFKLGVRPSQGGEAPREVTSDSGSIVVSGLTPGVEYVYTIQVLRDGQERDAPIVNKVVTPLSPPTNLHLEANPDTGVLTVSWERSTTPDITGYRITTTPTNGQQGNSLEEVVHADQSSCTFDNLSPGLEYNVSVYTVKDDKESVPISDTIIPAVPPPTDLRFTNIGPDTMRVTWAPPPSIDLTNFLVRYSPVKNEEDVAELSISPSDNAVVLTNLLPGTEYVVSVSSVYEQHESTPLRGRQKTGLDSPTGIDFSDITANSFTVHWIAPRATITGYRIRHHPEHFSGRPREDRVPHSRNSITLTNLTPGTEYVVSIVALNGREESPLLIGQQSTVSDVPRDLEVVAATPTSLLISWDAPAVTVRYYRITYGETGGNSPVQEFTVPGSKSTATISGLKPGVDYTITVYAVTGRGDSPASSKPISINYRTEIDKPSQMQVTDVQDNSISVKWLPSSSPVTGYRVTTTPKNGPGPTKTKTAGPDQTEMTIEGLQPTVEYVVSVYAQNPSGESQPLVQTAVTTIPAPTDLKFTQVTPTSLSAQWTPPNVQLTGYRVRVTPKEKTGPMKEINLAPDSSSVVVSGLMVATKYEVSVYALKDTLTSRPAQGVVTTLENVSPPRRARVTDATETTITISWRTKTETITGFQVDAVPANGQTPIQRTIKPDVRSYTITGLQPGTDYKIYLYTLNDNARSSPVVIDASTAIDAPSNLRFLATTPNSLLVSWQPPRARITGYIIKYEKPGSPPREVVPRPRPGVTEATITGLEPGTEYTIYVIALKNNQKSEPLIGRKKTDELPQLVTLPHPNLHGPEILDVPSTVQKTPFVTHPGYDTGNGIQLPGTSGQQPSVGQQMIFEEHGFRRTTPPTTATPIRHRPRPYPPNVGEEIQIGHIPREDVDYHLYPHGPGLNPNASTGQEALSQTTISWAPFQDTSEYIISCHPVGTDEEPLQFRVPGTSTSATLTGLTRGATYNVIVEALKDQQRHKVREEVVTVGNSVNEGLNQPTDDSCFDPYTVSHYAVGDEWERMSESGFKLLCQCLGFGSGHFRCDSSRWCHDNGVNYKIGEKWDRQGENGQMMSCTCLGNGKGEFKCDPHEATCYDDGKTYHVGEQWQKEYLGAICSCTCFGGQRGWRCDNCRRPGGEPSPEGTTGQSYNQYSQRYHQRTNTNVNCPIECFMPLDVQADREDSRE

Kd: < 50 nM
B1: recombinant embigin extracellular domain GST-fusion protein (EMB-GST) (domain or fragment)
chain: DGSAPDSPFTSPPLREEIMANNFSLESHNISLTEHSSMPVEKNITLERPSNVNLTCQFTTSGDLNAVNVTWKKDGEQLENNYLVSATGSTLYTQYRFTIINSKQMGSYSCFFREEKEQRGTFNFKVPELHGKNKPLISYVGDSTVLTCKCQNCFPLNWTWYSSNGSVKVPVGVQMNKYVINGTYANETKLKITQLLEEDGESYWCRALFQLGESEEHIELVVLSYLVP
